Consider one molecule from paper PMC6219920 (Developmental cell, 2018).

For the experiment, the target named is wild type CENP-A complexed with histone H4 (human, UniProt P49450 1-140; P62805 1-103). The experiment in a line: pull-down.

B1: MBP-HJURP^1−208 (domain or fragment)
chain: MLGTLRAMEGEDVEDDQLLQKLRASRRRFQRRMQRLIEKYNQPFEDTPVVQMATLTYETPQGLRIWGGRLIKERNEGEIQDSSMKPADRTDGSVQAAAWGPELPSHRTVLGADSKSGEVDATSDQEESVAWALAPAVPQSPLKNELRRKYLTQVDILLQGAEYFECAGNRAGRDVRVTPLPSLASPAVPAPGYCSRISRKSPGDPAKP
Turning to B1, the binding result is recorded as “binds”.
